Source: patent US20010016194A1 (priority 1999, published 2001)

What was measured:
(His)6-Raf-1 [1] = molecular target: T1, (His)6-Raf-1 (Homo sapiens, UniProt P04049); experiment: Totally cell-free system: binding of bacterially produced (His)6-Raf-1 to FLAG-HMK-IL-2Rβ chain fusion proteins, anti-Raf-1 immunoblot; conditions: for amount of Raf-1 proteins bound, % of the positive control value (Raf-1 binding to FLAG-HMK-IL-2Rβ chain WT): estimated using Hewlett Packard ScanJet
T1 construct: made in house; host or cells: M15 bacteria (E. coli), pQE-30
Method: For the construction of the (His)6-Raf-1 expression plasmid, PCR was performed using the […] cDNA as template and oligonucleotide primers designed to facilitate cloning into the pQE-30 plasmid according to the manufacturer's protocol (QIAGEN, QIAexpressionist; Chatsworth, CA). (His)6-Raf-1 protein was produced in M15 bacteria by IPTG induction, and purified on Ni-NTA resin (QIAGEN). Affinity purification yielded a 72-74 kD protein which was recognized by anti Raf-1 antibody.
Accordingly, in this totally cell-free assay, FLAG-HMK-IL-2Rβ chain wild type and deletion mutants lacking at least one of several defined domains of the IL-2Rβ chain (see Example 1) were used to identify the IL-2Rβ chain domain involved in Raf-1 binding. Assay conditions were similar to those described in Example 1. Briefly, bacterially produced proteins: FLAG-HMK-IL-2Rβ chain wild type (WT), FLAG-HMK-IL-2Rβ chain containing only proline rich C-terminal (CT^+), FLAG-HMK-IL-2Rβ chain mutants lacking:serine rich region (S^−), acidic domain (A^−), acidic domain and proline rich C-terminal (A^−CT^−) were incubated with bacterially produced (His)6-Raf-1 (for all constructs see FIG. 1) followed by adsorption of FLAG-HMK-IL-2Rβ chain/Raf-1 complexes on anti-FLAG affinity beads. After extensive washing, IL-2Rβ chain/Raf-1 complexes were competitively eluted from anti-FLAG beads using buffer containing FLAG peptide. Eluted proteins were separated on SDS-PAGE, transferred onto Immobilon membrane and blotted with anti-Raf-1 antibody.

(His)6-Raf-1 [2] = molecular target: T1, (His)6-Raf-1; experiment: Kinase activity toward Mek-1 after interaction of FLAG-HMK-IL-2Rβ chain with bacterially produced (His)6-Raf-1; type: biochemical; conditions: interaction with (His)6-Raf-1; enzymatically inactive (His)6-Mek-1 substrate
Method: Bacterial lysates containing FLAG-HMK-IL-2Rβ chain wild type and (His)6-Raf-1 proteins were used (see Example 2) to test the hypothesis that the IL-2Rβ chain induces catalytic activity of Raf-1. Assay conditions were similar to those described above. Briefly, bacterially produced proteins: FLAG-HMK-IL-2Rβ chain wild type (WT) or FLAG-HMK (negative control) (for all constructs see FIG. 1) were incubated with bacterial lysates containing either (His)6-Raf-1 or (His)6 (negative control) followed by the absorption of protein complexes on anti-FLAG affinity beads. […] Products of kinase reactions were boiled in SDS-PAGE sample buffer followed by separation on SDS-PAGE, transfer onto Immobilon membrane and autoradiography.

[3] = test system: T-cell derived, active serine/threonine kinase; experiment: Protein kinase reaction on anti-FLAG beads coated with FLAG-HMK-IL-2Rβ chain proteins and exposed to T-cell lysates; type: biochemical, human; conditions: for level of (His)6-Mek-1 kinase phosphorylation: kinase defective (His)6-Mek-1 as substrate; for serine/threonine kinase activity, phosphorylation of p70 protein: no exogenously added substrate
Description: FLAG-HMK-IL-2Rβ chain wild type and deletional mutants lacking certain defined domains of the IL-2Rβ chain (see Examples 1 and 2 and FIG. 1) were used to identify IL-2Rβ chain domain involved in binding T-cell derived, active serine/threonine kinase. Assay conditions were similar to those noted above. […] FLAG-HMK- fusion proteins coated beads were further used as affinity reagents to absorb proteins present in T-cell lysates. T-cell derived proteins bound to FLAG-MHK fusion proteins were then tested for serine/threonine kinase activity in the absence or presence of exogenous substrates: Histone H-1 or (His),-Mek-1. Products of kinase reactions were boiled in SDS-PAGE sample buffer followed by separation on SDS-PAGE, transfer onto Immobilon membrane and autoradiography. The following are the experiments that were carried out and their results: […]

[4] = molecular target: T2, Raf-1 proteins present in T-cell lysates (Homo sapiens, UniProt P04049); experiment: Cell-free system: binding of Raf-1 from T-cell lysates to FLAG-HMK-IL-2Rβ chain fusion proteins on anti-FLAG beads, anti-Raf-1 immunoblot; parameters: decrease of Raf-1 binding in comparison to WT control: unit not given here; conditions: T-cell lysates, anti-Raf-1 immunoblot; for binding of T-cell derived Raf-1 proteins: affinity beads coated with fusion protein
T2 construct: endogenous in cells; host or cells: PHA-stimulated human peripheral blood mononuclear cells (T cells), lysate
Description: (ii) In order to study the interaction of IL-2Rβ chain with intracellular molecules, the FLAG-HMK-IL-2Rβ chain cytoplasmic domain fusion protein was purified from bacterial lysate using the M2 anti-FLAG monoclonal antibody in a standard affinity chromatography procedure. More specifically, bacterial lysate proteins were absorbed onto anti-FLAG (M2) affinity column (IBI-Kodak, New Haven, Conn., USA). After washing the column, the adsorbed proteins were eluted with either glycine buffer (pH 3) or FLAG peptide (10^−4M). Proteins in various fractions were analyzed for expected size (about 33 kDa) and purity after separation on SDS-PAGE and Commassie blue staining. The presence of a functional HMK recognition site was confirmed by phosphorylation of the purified 33 kDa IL-2Rβ chain fusion protein by HMK. More specifically, the eluted fusion proteins were tested for susceptibility to phosphorylation by incubation with the catalytic subunit of bovine heart muscle kinase (Sigma) (1 U/ul) in buffer containing 20 mM Tric-HCl, pH 7.5, 1 mM DTT, 100 mM NaCl, 10 mM MgCl2 and 1μCi [γ^32p] ATP for 30 min at 37° C. followed by SDS-PAGE and autoradiography. Purified FLAG-HMK-IL-2Rβ chain fusion proteins were used as an affinity reagent to probe for cytosolic proteins present in lysates of human T cells, metabolically labeled with [^35S ]-methionine, that bind to the IL-2Rβ chain. […] For [^35S]-methionine labeling, the cells were suspended at 4×10^7 cells/ml at 37° C. followed by addition of 0.5 mCi of [^35S]-methionine for 4 hours prior to lysis in Dounce homogenization buffer and application of the lysate to the affinity column. Several [^35S]-labeled proteins were retained by the FLAG-HMK-IL-2Rβ chain cytosolic domain fusion protein bound to the affinity column. One of these proteins was identified as Raf-1 by immunoblotting using a polyclonal antibody specific for the SP-63 peptide which corresponds to the C-terminal fragment of Raf-1. A molar excess of the competing SP-63 peptide blocked binding of the anti-SP-63 antibody to Raf-1.
Using the basic cell-free system described above, a number of FLAG-HMK-IL-2Rβ chain wild type FLAG-HMK-IL2Rβ chain deletion mutant proteins were then studied with respect to this specific interaction with Raf-i proteins present in T-cell lysates. These FLAG-HMK-IL2Rβ chain wild type (WT) and deletion mutants lacking certain defined domains of the IL-2Rβ chain were used to identify the IL-2Rβ chain domain involved in Raf-1 binding. Assay conditions were similar to those described above. […] In FIG. 1, there is shown, schematically, all of the constructs, i.e., FLAG-HMK-IL-2Rβ chain fusion proteins produced in transformed bacterial cells and used in this study. These FLAG-HMK- fusion proteins-coated beads were then used as affinity reagents to absorb Raf-1 proteins present in T-cell lysates. T-cell derived proteins bound to FLAG-HMK fusion proteins were then eluted using buffer containing FLAG peptide, separated on SDS-PAGE, transferred onto Immobilon membrane and blotted with anti-Raf-1 antibody.
The absorbed proteins were washed, eluted with FLAG peptide and probed for the presence of Raf-1 and 14-3-3 proteins on immunoblots. […] Washed cells (about 4×10^7) were lysed in Dounce homogenization buffer, centrifuged (15×10^3 xg for 15 min.) and supernatants applied onto washed anti-FLAG (M2) affinity column (IBI-Kodak) coated with bacterial lysates interacted with one of the FLAG-HMK fusion proteins. […]

B1: FLAG-HMK-IL-2Rβ chain WT: bacterially produced fusion protein: FLAG epitope, HMK site and wild type IL-2Rβ chain cytoplasmic domain (protein)
chain: NCRNTGPWLKKVLKCNTPDPSKFFSQLSSEHGGDVQKWLSSPFPSSSFSPGGLAPEISPLEVLERDKVTQLLLQQDKVPEPASLSSNHSLTSCFTNQGYFFFHLPDALEIEACQVYFTYDPYSEEDPDEGVAGAPTGSSPQPLQPLSGEDDAYCTFPSRDDLLLFSPSLLGGPSPPSTAPGGSGAGEERMPPSLQERVPRDWDPQPLGPPTPGVPDLVDFQPPPELVLREAGEEVPDAGPREGVSFPWSRPPGQGEFRALNARLPLNTDAYLSLQELQGQDPTHLV
modifications: left off: small tags and cut ends
binding of Raf-1 proteins ((His)6-Raf-1 [1]; anti-Raf-1 immunoblot): bind Raf-1 proteins equally well
induction of kinase activity toward Mek-1 kinase ((His)6-Raf-1 [2]): did not result in the induction of kinase activity
level of (His)6-Mek-1 kinase phosphorylation [3]: increase
serine/threonine kinase activity, phosphorylation of p70 protein [3]: bind T-cell derived protein(s) expressing serine/threonine kinase activity
binding of T-cell derived Raf-1 proteins [4]: bind T-cell derived Raf-1 proteins equally well

B2: FLAG-HMK-IL-2Rβ chain mutant A-: FLAG-HMK-IL-2Rβ chain mutant lacking the acidic domain (protein)
chain: NCRNTGPWLKKVLKCNTPDPSKFFSQLSSEHGGDVQKWLSSPFPSSSFSPGGLAPEISPLEVLERDKVTQLLLQPLSGEDDAYCTFPSRDDLLLFSPSLLGGPSPPSTAPGGSGAGEERMPPSLQERVPRDWDPQPLGPPTPGVPDLVDFQPPPELVLREAGEEVPDAGPREGVSFPWSRPPGQGEFRALNARLPLNTDAYLSLQELQGQDPTHLV
modifications: left off: small tags and cut ends
notes: FLAG-HMK-IL-2Rβ chain mutant lacking the acidic domain
amount of Raf-1 proteins bound, % of the positive control value (Raf-1 binding to FLAG-HMK-IL-2Rβ chain WT) ((His)6-Raf-1 [1]): 17-50%
level of (His)6-Mek-1 kinase phosphorylation [3]: Background levels
serine/threonine kinase activity, phosphorylation of p70 protein [3]: no phosphorylated band p70
decrease of Raf-1 binding in comparison to WT control [4]: 50-80

B3: mutant A^−CT^−: FLAG-HMK-IL-2Rβ chain mutant lacking both acidic domain and proline rich C-terminal (protein)
chain: NCRNTGPWLKKVLKCNTPDPSKFFSQLSSEHGGDVQKWLSSPFPSSSFSPGGLAPEISPLEVLERDKVTQLLL
modifications: left off: small tags and cut ends
notes: FLAG-HMK-IL-2Rβ chain mutant lacking both acidic domain and proline rich C-terminal
amount of Raf-1 proteins bound, % of the positive control value (Raf-1 binding to FLAG-HMK-IL-2Rβ chain WT) ((His)6-Raf-1 [1]): 0%
level of (His)6-Mek-1 kinase phosphorylation [3]: Background levels
serine/threonine kinase activity, phosphorylation of p70 protein [3]: no phosphorylated band p70
binding of T-cell derived Raf-1 proteins [4]: no binding

B4: FLAG-HMK-IL-2Rβ chain CT^+: FLAG-HMK-IL-2Rβ chain containing only the proline rich C-terminal (protein)
chain: QPLSGEDDAYCTFPSRDDLLLFSPSLLGGPSPPSTAPGGSGAGEERMPPSLQERVPRDWDPQPLGPPTPGVPDLVDFQPPPELVLREAGEEVPDAGPREGVSFPWSRPPGQGEFRALNARLPLNTDAYLSLQELQGQDPTHLV
modifications: left off: small tags and cut ends
notes: FLAG-HMK-IL-2Rβ chain containing only the proline rich C-terminal
amount of Raf-1 proteins bound, % of the positive control value (Raf-1 binding to FLAG-HMK-IL-2Rβ chain WT) ((His)6-Raf-1 [1]): 0%-10%
level of (His)6-Mek-1 kinase phosphorylation [3]: Background levels
serine/threonine kinase activity, phosphorylation of p70 protein [3]: no phosphorylated band p70
binding of T-cell derived Raf-1 proteins [4]: no binding
